Test results reported in US20160333072A1.

Legend:
[1] = molecular target: 4-1BB (CD137) on human MART-1 reactive T cell clones (TIL 209) (human) (UniProt Q07011); test: cell-based or functional assay
[2] = molecular target: human SLAMF6 (NTB-A) on human tumor infiltrating lymphocytes / T cells (human) (UniProt Q96DU3); test: cell-based or functional assay
human SLAMF6 (NTB-A) on human tumor infiltrating lymphocytes / T cells (human), sequence (Q96DU3 22-332): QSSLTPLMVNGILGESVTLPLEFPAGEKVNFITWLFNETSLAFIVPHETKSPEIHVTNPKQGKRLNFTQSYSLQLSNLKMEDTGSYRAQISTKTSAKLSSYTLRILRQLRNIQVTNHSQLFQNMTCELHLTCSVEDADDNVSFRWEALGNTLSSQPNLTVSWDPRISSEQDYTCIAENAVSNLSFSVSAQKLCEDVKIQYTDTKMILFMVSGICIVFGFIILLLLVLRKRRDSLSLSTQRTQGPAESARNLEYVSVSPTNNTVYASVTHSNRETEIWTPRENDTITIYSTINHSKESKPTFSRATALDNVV

seSLAMF6 (SEQ ID NO: 3; Leu 28-Lys 225 of Q96DU3 fused with a polyhistidine tag at the C-terminus), sequence (Q96DU3 other isoform, or with tags, fused parts or gaps limits assumed): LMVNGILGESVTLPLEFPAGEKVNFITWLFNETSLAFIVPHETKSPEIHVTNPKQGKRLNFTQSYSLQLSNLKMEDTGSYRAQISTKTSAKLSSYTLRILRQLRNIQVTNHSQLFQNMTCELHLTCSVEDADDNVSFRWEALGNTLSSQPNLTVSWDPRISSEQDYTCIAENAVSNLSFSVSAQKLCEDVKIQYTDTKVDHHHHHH
4-1BB (CD137) on human MART-1 reactive T cell clones (TIL 209) (human), sequence (Q07011 24-255 limits assumed): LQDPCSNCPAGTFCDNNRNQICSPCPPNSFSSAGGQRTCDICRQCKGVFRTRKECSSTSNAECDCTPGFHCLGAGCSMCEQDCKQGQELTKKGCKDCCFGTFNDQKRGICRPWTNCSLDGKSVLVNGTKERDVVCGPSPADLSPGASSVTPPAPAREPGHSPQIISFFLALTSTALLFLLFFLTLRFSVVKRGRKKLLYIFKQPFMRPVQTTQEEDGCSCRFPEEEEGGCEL

4-1BBL expressed on transfected 624mel melanoma cells (mel624/4-1BBL) (from UniProt P41273 1-254) (ligand)
IFNγ secretion of TIL 209 co-cultured with mel624/4-1BBL in CM (mel624/moc: 4,120) [1]: 8600 pg/mL
IFNγ secretion of TIL 209 co-cultured with mel624/4-1BBL with BSA (mel624/moc: 3,160) [1]: 10500 pg/mL

seSLAMF6 (SEQ ID NO: 3; Leu 28-Lys 225 of Q96DU3 fused with a polyhistidine tag at the C-terminus) (from UniProt Q96DU3 28-225) (receptor)
CD107a surface expression (lytic degranulation) of human TILs 209 after REP with seSLAMF6 50 µg/ml, co-culture with 526mel [2]: 2 fold
ratio of cell death and apoptosis (PI / Annexin-V, flow cytometry) of melanoma-activated TILs 209 after IL-2 withdrawal, seSLAMF6 10 µg/ml [2]: 4%
ratio of cell death on Day 7 (PI / annexin-V), TILs expanded by REP-IL-2, then seSLAMF6 50 µg/ml [2]: 7 to 11%
ratio of cell death on Day 7 (PI / annexin-V), TILs expanded by REP-seSLAMF6, then seSLAMF6 50 µg/ml [2]: 7 to 11%
